According to a protein production outcome set (Wang et al. 2014):

Assay: label from the status in PepcDB records
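Further: failed if final PepcDB status was selected cloned or expressed and not failed if soluble or beyond.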

Row | Sequence | protein production
1 | MPKIHELSETLTNQIAAGEVIERPASVVKELVENSLDAGATRIRVDFVDAGLKQIVVQDNGTGIARDQVDLAFTRHATSKISNEHDLFKVATLGFRGEALASISAVSHVEILTATKGAIGVKATFSGGNKKGQEDAAAREGTQITVRDLFFNTPARLKYLRSPRTEIMKIVDIINRLALGYPSVSFTLSNTGKVLLRTPGNGNLKQTVANVYGRHIAEKMEEFEAKDNDFKISGLMSKPELTRSTRNFVSILLNGRYIRNFQLNTAIMDGYGAKLAARHYPIIVLAIQVDPLLVDVNVHPTKQEVRLSKEKELSRLITSTISNVFIKKTEQTSAFANLENKRETLVDQLQFNLNQNVVNTARKKTPEIHENNEKPEFLAKPKKPEEEKTDYVDLNIPREDDKYIITKTWDKNVLLQQDLRPFSNTLCDSEVISSGDETLANNLPQLSYIGQIDTYIIAENNSDLFLIDQVAARRRLQFEKIYEMLLSKKIVQQGLLTPIVLEFGNLDFIQIKDKIDQIKQIGIYLEDFGQNSFIVRSYPTWIHNDVEETIRQILDGYLNLDKGKSENLFKRVAAMQAKRDISGKINLAAAEASQILIDLRKTEDPYHDADGRLVLVRMSENELKKMFKRDK | failed
2 | MTDEVSVLFVDFLLEWLEMMRTRVRETTYASYNSGIRQSIIPYFMDKKLTLTDIEENPKYLQDFYQHELSKGLSPNSVLRRHANIRKALQHAFHLGLIKSNPADRIERPKKQDYTALEHHHHHH | not failed
3 | MLLSFFLINSNGEVIIEKSWKTEHTRRVCDLFWQEILKVSSPEELAPLLHFPKFTIVHIYSCGVFLVATVRKTLQSTFALELLHHLVDTFVDYFGEFNEHAIKENFVTVYEIIEEVLDHGFPFTVDIASLKELVPPPSLLSRVLGSVTGSSLSLKDISDWNSRKKVSWRNPNIRYAHNEIFVDIVEEVSVVLNSKGQCIHSGISGSIVVNCRLSGMPELALHLNESSIAKHSFVHPCVRYGRFIREGIISFVPPDGVFQLLKYQTWKAPYIPVTLEPQYSVDKERKHGRLQLTLDIRGCGGKPCEEMMISIPFHHATNITNLNVTVGTVRYDSQIQVCPI | failed
4 | MDEVLLVKKLVEDAIVPTRGSKCAAGIDLYSNTNFIIQPHERFLVSTGVSVQIPHQCYGRIAPRSSLALKYGIDVGAGVIDEDYRGEIKVILFNHSNEIFNGRKGDRIAQLIIERISYCRISEVKELNTTDRGTNGFGSTGK | not failed
5 | MTITNSKAEAWELIGNQFWTIGRVAARPSDRENDIFLENIVPGSTVAVIGASTRFLIEKALERGASVTVFDFSQRMCDDLAEALADRCVTIDLLDITAEIPKELAGHFDFVLNDRLINRFTTEEARRACLGMLSLVGSGTVRASVKLGFYDIDLKLIEYGEQSGTLAKFFDPSDKTFHFREAGDVLDRALVPHGLIDKPTLLEWYRRRGKETRFDDEDVRAL | failed
6 | MGPVPEFSVIIPARNEAAYLPGTLRALERQTLAPAEVIVVDNASRDQTAQIARSWGAQVLSCPEGGVARARQLGLDTARSSWVATTDADSLPAPGWLAAYAQAALLAGGYPEVEAYEDVILGQNLARLGEIGYVPRALVETSARRLDRGVGPFLIQHLRNLTGHTRGLEHHHHHH | failed
7 | LFSSRDILEVLQDIHMETGETVAIATKNDIYLQYIQIIESVHALRFHVDENAIRPLTMSSNGWMLMSTMNDKAIDNTVRRANTITQKDGIRFEVDDMMARIRQVREQGYASAEHIPFVGGGTICVLLPMTIQGQPVTMGLGGALDRIKQNYDRYLELLLNGVQQLKKSDSFHQPI | not failed
8 | MKRADFCIIGLGRFGMQVAHSLKENNFTLVLIDNDQHKTNTAAQEFDHVVCCDGSNLTALAELQLEEFSAVIVGVTNIEASIMICANLRELGQKNIIARAKNEVHNRVLRTMGIREALIPEKIVGKNLVIRLIHGMETEIINLGNDILFVRAPVNNKKLFNRTLGEINIREHTNANLISIMRNGKDVVFPLGPNTQIQPGDVITAVCQLSGVNQYLRYINPNDKNKYKASE | failed
9 | MSSSREENVYLAKLAEQAERYEEMVEFMEKVAKTVDTDELTVEERNLLSVAYKNVIGARRASWRIISSIEQKEESRGNDDHVSIIKDYRGKIETELSKICDGILNLLDSHLVPTASLAESKVFYLKMKGDYHRYLAEFKTGAERKEAAESTLVAYKSAQDIALADLAPTHPIRLGLALNFSVFYYEILNSPDRACSLAKQAFDEAISELDTLGEESYKDSTLIMQLLRDNLTLWNSDINDEAGGDEIKEASKHEPEEGKPAETGQ | failed
10 | MALAFDEFGRPFIILREQDQKTRLKGIDAQKANISAGKAVARILRSSLGPKGMEKKCFKDLTEMSPYVSFFLLNLISLRSIPMALALNSGLQPIETLSAVKSQQIKRRTFHSTGLIATM | failed
11 | MANLFSFLFLGTLGWGMSLYLMKILLVSLTPTEIVLYRMAIGAASLFILAKLFKLKTDNIRGLILDGIIVGTFNMTLPFYLTTYAVKTVSSSLASVINGLTPLCTLILGMVFFSSKQKLGVLNLLSIVLGFIGIIIINSDVSIYQGSAVEFIALLATTISYGVTANYFKYHARTKEPILVSAVSAFVSAITMLIFKCATESSINSWGIPQGMNQIIALLWLGIIGSGFCLYLYCSLIQNAGAVFASMITYLMTITGVIMGMIFLHETISHQVMIGCIFIFFSLILVNHAPLLEKILVSISRQISLKSARRYELNQ | failed
12 | MFGPFKPAPHIAELPAEKIDSTYKRLRWQVFAGIFFGYAAYYFVRANFDLAQPGLIQAGLYSKAELGVIGSAAGLAYGLSKFVMAGMSDRSNPRVFLPFGLLLSGLCMTLMGLFPWATSGIAIMWVMIFLNGWFQGMGWPPCGRTMVHWWSKSERGTIVSIWNTAHNIGGMVPGAMVLLASAIFFSTHGIEAQAKDVWQQSLYFPGIAAMIFAIPVYFVMRDTPQSCGLPSIEKWRNDYPDDYNEKTYENDLTAKEIFVTYVLKNKLLWYIAIANVFVYLIRYGVLKWSPVYLSEVKHFNIKGTAWAYTIYELAAVPGTLLCGWVSDKVFKGKRGLTGFIFMILTTAAVVAYWMNPATPEAELANYSAWYENPYQLTDFVLMTLIGFLIYGPVMLIGLHALELAPKKAAGTAAGFTGLFGYLGGTVSASAVIGWAAQHYGWDGGFYVMIGGGVLAVLLLLIVMVEEGKHKAKLGDTYGTK | failed
13 | MALPASTPPRAKKRFAWIRTLRWYWWLLLFILLGYGLSHIMHWDDRGLLWLKERFESNEERSASIWLPDYHVEIDAKALPGMEKDEASDLSYNPISKTLFAVMGKNAFLVELTLKGDVLRKIPLVGWSNPEGVAVMNDGLIAITDERQHQLTIVKVTADTTTLNIADFPHYELGTSANKNKGFEGVAWDPRRQQLLLGEERPPALYTWKSDGSNVLKGDKQSLLSRALDMRNLSSLSIDPRTGHMLALSADSHMLLEVDEQGNQVSFMTLLGGMNGLKDTIPRAEGVALDEAGTLYMVSEPNLFYSFRKQ | failed
14 | MIELIDPISKQRLEESPEGLRNENGIVVYPLINGAYRVAASDNYTSNFGLEWNTFQKTQIDKFSGNTVSEERLFAQTNWQKNGLEGETILEVGSGAGRFSQIMLDHTKATLYSVDYSEAVEANYRNNGPHERFKLFQASIYELPFKQASFDRVICLGVLQHTPDFKASVKALVEMVKPGGELVIDFYPIRNVFTKVHGKYLLRPILKRVNHHRLMSLIRNNIDFLISIYTFNRRIGLGVFNRFVPICEIERTLPKGMTPEQLKEWIILDTFDMFSPEYDQPQRLSTVAKWVKEFGMADVDASWVTYHGKLEAPTVRGRKVLEHHHHHH | not failed
15 | MIIERLVGNLRDLNPLDFSVDHVDLEWFETRKKIARFKTRQGKDIAIRLKDAPKLGLSQGDILFKEEKEIIAVNILDSEVIHIQAKSVAEVAKICYEIGNRHAALYYGESQFEFKTPFEKPTLALLEKLGVQNRVLSSKLDSKERLTVSMPHSEPNFKVSLASDFKVVVK | not failed
16 | MGVISAYAVVHERAAIIDPGTAKGAEIILDEIDRSWNVEYICPTHIHIDHGGGAARLAKALDAKIIVHPRGVKHVVNPEKLWEASKAVLGEVAEIYGKPESIDESKVIAVEDEQEFDLGGERLKVFHAPGHAPHMLVYYLTNSKVLFPADAVGMCFGGVVFPLTPPPFDADAALKTLKRLKGLKVDYVAFTHYGVVELEHHHHHH | failed
17 | MRIQTTFSRKLVLMSLLAVFCGCADVHSSVKGDAMVEQAKGGVLREIKVAETGEGARVVLSADRPLAYTFYKTADPPKAVIDLARTEPGAIASPMDVNSDTIRRIETVRYGEGATAMTRVEVYFTRDTEANATIDASDKGMLVLAVARPVAPAASVAVEAAPAAGQAGESSTGAPVAVAAAPAVAPAPVAVEPQAPIAPVVAPQTGPPVIKAIEAQNGYLVIETSGEIKDFKFFRLAKPDRLVVDISDARLGINSKAIPLNALGVGMARIGAYPDKVRIVLDAAGGTLSPLNVTKGAAGLIVAPADKVVDVPRAAAPPQPSASASQARQPEAVKSAEPAKGLTPAVDAIEFKVLDGTSRITVAVTGACANDKPVKSADGFSVTLRNCILPKKLQRHLDTGAFASVVQKVTPYQVKTKGRSDVKIQVQLRQPASYDVRRDGDLLQVSVRNPEGFEPPVADVPASPTLQDGMDQAAVRQKEPSRETDPLAGVAQSGGTKKAYTGRRVTLEFSDADIRKIFQLIAEVSNLNFLVGDDVTGTISLKLVNVPWDQALDVILENKGLGMQRDGNIVQIRPKSKIQTLADEEQALKRAKERGMELKTEVFDINFAAVGDIVSQFNAVKSERGTISQDARTNRVIVKDIEPALAEMRILLKNLDLPEKQVLIEARIVEATSTFTRDLGVQWGIHSNDSGADIIRSVDAGFGGIVTPPPASGFPAATSSGGAVGISFAKMGSLQVDLRLSAAAVAGLVKIVSTPKVVTLNNKAAKISQGQSIPYQTTSAEGTKTEFVEAALTLEVTPHITADGSVSMKIKASNNSAGTGSPPPINKKEATTELLVKNGETTVIGGIYVDSDTDEDRGVPFLMDIPVLGWLFKSNTKNKTKTELLIFITPKIVS | failed
18 | MDLDYGGVPLWINRFLGEPSVLTLKDRIDPGWYRAVNTQSCPLECDCPIQWPTAIYCDHRGLNQLPSGLPFRLQYLFLQGNNITSLGSRAFDNTTYLRWLILDHNELLSEQLDNVLFSSLTRLVNLFINHNNLTKVPAGLPSGLKQLRLAYNHIEKISEGDFQNLDSLTLILLQGNRLKTIEEGDFKGLGALNLLDLSHNFLDTFPKHLPPSVQQLYLSNNSLTGLSENSLHAFSGLRYLRLGHNKLRNERLDPGAFNLTSLVELDLSYNRLTEIPSVPITLQYLYLEVNHIQEFNVSSFCRTVGPTSYSRMKILRLDGNKLEYHKLPPDWVFCLRVLHNIYI | failed
19 | MSIREVIMDYLENSSKKALSVEELSVALHMNKAKDYKVFVKTLASLEAEHLLNFTAKGKVELAEKEEAKVVISGIFRANAAGFGFVSIDAEEPDVFVARGQTAFALDGDEVFIEIDKNANALKGTSAEGHVVEIIRHDVHQVVGTFVALNDDEKEQTGLIGFVKSRNKKIPYRVYLENEGLIPENKAIVRVEITHYPDKEFPQTMQGLVTEIIGQADDQGIDVLEVLASMDIVSEFPKEVLDQAEAVPEEVPENEIVGRVDYRNEITFTIDGADAKDLDDAVHAKRLENGNYELGVHIADVSHYVTENSPLDKEAYERGTSVYVTDRVVPMLPERLSNGICSLNPRINRLTQSCVMEISPEGRVINYQISQSIIKTTERMTYDAVNQMIAGDEAALENYAKIADSVKIMVELHHILEAMRKRRGAIDFDTVEAKIIVNEKGLPIEIRKRTRGIAERMIESFMLEANETVATHFEAHGLPFIYRIHEQPKADRLQRFIDFAATFGMQIEGTSNGIDQKVLQAFMKKIKGQPGEMVLSTMLLRSMQQARYSENNEGHFGLAAENYTHFTSPIRRYPDLLVHRLIREIGEGKTPANILQKWEDKIPEIAEHSSHRERRAVDAEREVEKMKKAEFMEEHVGEEYEGIIASVTRFGMFIELENTIEGLVHISTLKGDYFNYQERMLALIGERSGLTFKIGQPIKIKVVKADRMTGEIDFEYLPSELDLIDKAAKAKKKPDHKGRKKSNQSLKVKSVAPKSTDKSANKSKNGRRADEKFEFDKKKKKSAKKPFYSKAAKGKFTDKKDNGKKFTDGRKKPHKRG | failed
